In the test the target is T1, FADD DD (death domain of Fas-associated protein with death domain, residues 93-184), His-tagged (UniProt Q13158 93-184).
T1 sequence (looked up): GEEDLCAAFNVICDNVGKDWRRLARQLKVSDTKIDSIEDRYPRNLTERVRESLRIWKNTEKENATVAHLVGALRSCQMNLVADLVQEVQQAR
Nature of the test: SEC-MALS.

B1: RIP1 DD (death domain of receptor interaction protein kinase 1, residues 583-664), His-tagged (domain or fragment, UniProt Q13546 583-664, looked up)
chain: TDKHLDPIRENLGKHWKNCARKLGFTQSQIDEIDHDYERDGLKEKVYQMLQKWVMREGIKGATVGKLAQALHQCSRIDLLSS
As for B1, the “stoichiometry N” value is ~1 RIP1 DD per FADD DD (5:5).

B2: GST-tagged RIP1 DD (domain or fragment, UniProt Q13546 583-664, looked up)
chain: TDKHLDPIRENLGKHWKNCARKLGFTQSQIDEIDHDYERDGLKEKVYQMLQKWVMREGIKGATVGKLAQALHQCSRIDLLSS
On to B2, for which the “stoichiometry N” value was 1 GST-RIP1 DD per FADD DD (5:5).

Source of the values: publication PMC4148139 (Biochemistry, 2014).
